Source: the nanobody polyreactivity screen of Harvey et al. (2022)

Experiment: yeast display, Sf9 membrane polyspecificity reagent, FACS + sequencing; frameworks hold sequencing errors
Outline: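 A synthetic nanobody library was expressed on Saccharomyces cerevisiae BJ5465 by galactose induction for 36–48 hours. The library was stained for 1 hour at 4 °C with 10% biotinylated, detergent-solubilized Sf9 membrane reagent and enriched with streptavidin microbeads before FACS. Low and high (top ~1%) gates were set on anti-HA fluorescence for expression and streptavidin fluorescence for reagent binding, and each polyreactivity label reflects the gate of origin.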

Row | Sequence | polyreactivity (PSR sort gate)
1 | QVQLVESGGGLVQAGGSLRLSCAASGFTFSRYAMGGYRQAPGKERELVAAISIRGGNTYYADSVKGRFTISRDNAKNTVYLQMNSLKPEDTAVYYCAAAGRYLRYAYWGQGTQVTVSS | high polyreactivity
2 | QVQLVESGGGLVQAGGSLRLSCAASGFIFGTYAMGWYRQAPGKERELVAAISVGGGSTYYADSVKGRFTISRDNAKNSVYLQMNSLKPEDTAVYYCNALYNDHFSWFSFGYWGQGTQVTVSS | low polyreactivity
3 | QVQLVESGGGLVQAGGSLRLSCAASGSIFRGYTMGWYRQAPGKERELVAAITSGDSTNYADSVKGRFTISRDNAKNTVYLQMNSLKPEDTAVYYCAAGRLYLPYLVYRTYSFVGYYYWGQGTQVTVSS | high polyreactivity
4 | QVQLVESGGGLVQAGGSLRLSCAASGRTFSRYAMGWYRQAPGKERELVAAISNSGASTYYADSVKGRFTISRDNAKNTVYLQMNSLKPEDTAVYYCAAERYRLSYQYQEYYYWGQGTQVTVSS | high polyreactivity
5 | QVQLVESGGGLFQAGGSLRLSCAASGRIFYTNVMGWYRPAPGKERELVAAISTGGGRTYYADSVKGRFTISRDYAKNTVYLQMNSLKPEDTAVYYCAADWRTKGYDSLGQGTQVTVSS | high polyreactivity
6 | QVQLVDSGGGLVQAGGSLRLSCAASGSIVYYNDMGWYRQAPGKEREVVATITSGGTTYYADSVKGRFTISRDNAKNSVYVQMNSLKGEDTAVYYCAATSYPGFDDWGQGSQVTVSS | low polyreactivity
7 | QVQLVESGGGLVQAGGSLRLSCAASGSIFNIYAMGWYRQAPGKESELVAAISYSGGSTYYADSVKGRFTISRDNAKNTVYLQMNSLKPEDTAVYYCNADGYYFLISNANPLGYWGQGTQVTVSS | low polyreactivity
8 | QVQLVESGGGLVQAGGSLRLSCAASGRIFDLKAMGWYRQAPGERKGVGCLYFLVWWSTYYADSVKGRFTISRDNAKNTVYLQMNSLKPVDTAVYYCAAVYFYSWEGDGDYWGQGTQVTVSS | low polyreactivity
9 | QVQLVESGGGLVQAGGSLRLSCAASGSIFNYYTMGWYRQAPGKRELVAAITWSGDSTYYADSVKGRFTISRDNAKNTVYLQMNSLKPEDTAVYYCAAAQARRYYWGQGTQVTVSS | high polyreactivity
10 | QVQLVESGGGLVQAGGSLRLSCAASGRIFSVYAMGWYRQAPGKEREFVAAITKGGVGTYYADSVKGRFTISRDHAKNSVYLQMNSLKPEDTAVYYFAARHYYGADRYYSWGQGTQVTVSS | high polyreactivity
11 | QVQLVESGGGLVQAGGTLRLTCAASGSIFSAYAMGWYRQEPGKEREFVAAITRRGGNTYYADSVKGRFTISRDNAKNTVYVQMNSLKPEDTAVYYCAAVAGGGPFDYWGQGTQVTVSS | low polyreactivity
12 | QVQLVESGGGLVQAGGSLRLSCAASGRTFARNAMGWYRQAPGKDRELVAAISSSGGSTYYADSVKGRFTISRDNAKNTVYLQMNSLKPEDTAVYYCAARSRHAYGYWGQGTQVTVSS | high polyreactivity
13 | QVQLVESGGGLVQAGGSLRLSCAASGITFYIYAMGWYRQAPGKERELVATISWSDGRTYYADSVKGRITISRDNAKNTVYLQMNSLKPEDTAVYYCAADWWYYQFDYEYWGQGTQVTVSS | low polyreactivity
14 | QVQLVESGGGLVQAGGSLRLSCAASGSIFDRNAMGWYRQAPGKERELVSAINSNGGITYYADSVKGRFTISRDNAKNTVYLQMNSLKPEDTAVYYCAAVIRVVYREDHCGQGTQVTVSS | low polyreactivity
15 | QVQLVESGGGLVQAGGSLRLSCAASGHTFSSYAMGWYRQAPGKERELVAAISVSATRTYYADSVKGRFTISRDNAKNTVYLQMNSLKPEDTAVYYCAARPVQFTYGYWGQGTQVTVSS | high polyreactivity
16 | QVQLVESGGGLVQAGGSLRLSCAASGLIFVINAMGWYRQAPGKERELVATISSRVSTNYADSVKGRFTISRDNAKNTVYLQMNSLKPEDTAVYYCNKGQTVSRGYRLYERFDYWGQGTQVTVSS | low polyreactivity
17 | QVQLVESGGGLVQAGCSLRLSCAASGSIFYFYGMGWYRQAPGKERELVASITYSGTSTYYADSVKGRFTISRDNAMITVYLQMNSLKPEDTAVYYCAASFYTVNSWYDSWGQGTQVTVSS | low polyreactivity
18 | QVQLVESGGGLVQAGGSLRLSCAASGFIFRKYAMGWYRQAPGKERELVAAITASGGSTYYGDSVKGRFTISRDNAKNTVYLQLNSLKPEDTAVYYCATDFHGAERWLKYVYWGQGTQVTVSS | high polyreactivity
19 | QVQLVESGGGLVQAGGSLRISCAASGRIFDYNVMGWYRQAPGKERELVAGISSGGSTYYADSVKGRFTISRDNAKNTVYLQMNSLKPEDTAVYYCAARGRPYRGYGYWGQGTQVTVSS | high polyreactivity
20 | QVQLVDSGGGLVQARVNLRLSCRATGIIFYLYVMGWYRQSPGKDRELVAVISYSGDDTYYADSVQVRFTISRDNAKNTVYLQMISLKPEDTAVYYCADDSIGYGVDYWGQGTQVTVSS | low polyreactivity
21 | QFQLLESGGGLVHAAGSLRLSSAASVSNFLSNAMGWYRQAPGKETELVAAITTSGTSTFYADSVKGRFTSSRDNAKNTVYLHINSLTPEDTEVYCAKDYLPYLHFVAPSTGDYDYWGQGTQVTVSS | low polyreactivity
22 | QVQLVESGGGLVQAGGSLRLSCAASGFTFYSYALGWYIQAPGKERELVAAISRGGSTTYADSVKGRFTISRDNAKNTVYLQMNSLKPEDTAVYYCAARYRYRYTPYRYDYWGQGTQVTVSS | high polyreactivity

Row | Sequence | polyreactivity (PSR sort gate)
23 | QVQLVESGGGLVQAGGSLRLSCAASGSIFRRNAMGWYRQAPGKERELVAAISIRGGSTYYADSVKGRFTISRDNAKNTVYLQMNSLKPEDTAVYYCNAKFRKADYDYWGQGTQVTVSS | high polyreactivity
24 | QVQLVESGGGLVQAGGTLRLSCAASGLIFKKYTMGWYRQAPGKERELVASISKSGGSTYYADSVKGRFTISRDNAKNTVYLQMISLKPEESAVYYCNRVTHYIRFDYWGQGTQVTVSS | low polyreactivity
25 | QVQLVESGGGLVQAGGSLRLSCAASGSIFVGYAMGWYRQAPGKERELVAAITFRGGSTYYADSVKGRFTISRDNAKNTVYLQMNSLKPEDTAVYYCNRVVRLRRPAQYNYWGQGTQVTVSS | high polyreactivity
26 | QVQLVESGGGLVQAGGSLRLSCAASGSTFSYYAMGWYRQAPGKERELVAVISRGGSTNYADSVKGRFTISRDNAKNTVYLQMNSLKPEDTAVYYCAAYVLPWRGRGQTEYGYWGQGTQVTVSS | low polyreactivity
27 | QVQLVESGGGLVQAGGSLRLSCAASGSTIFIYAMGWYRQAPGKERELVAAISGSGGTTYYADSVKGRFTISRDNAKITVYLQMNSLKPEDTAVYYCATDITLWYAYSHEGLYIGYYWGQGTQVSVSS | low polyreactivity
28 | QVQLVESGGGLVQAGGSLRLSCAASGSIFKYYALGWYRQAPGKERELVAAITSGVSTYADSVKGRFTISRDNAKNTVYLQMNSLKPEDTAVYYCAVRVTGPRGDYWGQGTQVTVSS | low polyreactivity
29 | QVQLVESGGGLVQAGGSLRLSCAASGFTIRSYAMGWYRQAPGKERELVAGITWRSSSTYYADSVKGRFTISRDNAKNTVYLQMNSLKPEDTAVYYCAARAVYRFNYWGQGTQVTVSS | high polyreactivity
30 | QVQLVESGGGLVQAGGSLRLSCAASGSIFLAYAMGWDRQAPGKEREFVAAITWSGDSTYYADSVKGRFTISRDNAKNTVYLQMNSLKPEDTAVYYCAADYFGGPSYEFDYWGQGTQVTVSS | low polyreactivity
31 | QVQLVESGGGLVQAGGSLRLSCAASGRIFGRYAMGWYRPAPGKEREFVAAISKRGGGTYYADSVKGRFTISRDNAKNTVYLQMNSLKPEDTAVYYCAVDNSPGFDDYDYWGQGTQVTVSS | high polyreactivity
32 | QVQLVESGGGLVQAGGSLRLSCAASGNTFRDYAMGWYRQAPGKERELVAAITSSGARTYYADSVKGRFTISRDNAKNTVYLQMNSLKPEDTAVYYCAADWSGYYTYDYWGQGTQVTVSS | low polyreactivity
33 | QVQLVESGGGLVQAGGSLRLSCAASGSTFDVYTMGWYRQAPGKERELVATISGDDGSTYYADSVKGRFTISRDNAKNTVYLQMNSLKPEDTAVYYCAADYGGFPNYYSTGDYWGQGTQVTVSS | low polyreactivity
34 | QDQLVESGGGLVQAGGSLRLSCAASGFIFGRYTMGWYRQAPWKERELVAAISGSDVSTYYADSVKGRFTISRDNAKNTVYIQMNSLKPEDTAVYYCAADAPWAYYEYDYWGQGTQVTVSS | low polyreactivity
35 | QVQLVESGGGLVQAGGSLRLSCAASGSIFGSNAMGWYRPAPGKERELVAAITNTGRTNYADSVKGRFTISRDNAKNTVYLQMNSLKPEDTAVYYCYTDGYEFTHFVGGWYQIIDYDYWGQGTQVTVSS | low polyreactivity
36 | QVQLVESGGGLVQAGGSLRLSCAASGRTFNYNAMGWYRQAPGTERELVAAINYNGGSTYYADSVKGRFTISRDNAKNTVYLQMNSLKPEDTAVYYCAADQSTVLDVGSWGQGTQVTVSS | low polyreactivity
37 | QVQLVESGGGLVQAGGSLRLSCASSGYIITRKAMGWYRQAPGKERELVATISSRGGRTYYADSVKGRFTISRDNAKNTVYLQMNSLKPEDTAVYYCAATPWYRTRTYDYWGQGTQVTVSS | high polyreactivity
38 | QVQLVESGGGLVQAGGSLRLSCAASGSTFVLYANGWYRQAPGKERELVAASTRRGGDTYYADSVKGRFTISRDNATNTVYLQMNSLKPEDTAVDYCATDYTTYGRYYYWGQGTQVTVSS | low polyreactivity
39 | QVQLQESGGGLVQAGDSQRLSCAASGNIFRFTDMGWYRKAPGKERELVAAINAGSTTYYADSVKGRFTISRDNAKNTVYLQMNSLKPEDTAVYYCAVYYLGSGTFGYWGQGAQVTVSS | high polyreactivity
40 | QVQLVESGGGLVQAGGSLRLSCAASGSIFRYNAMGWYRKAPGKERELVAAIRSGGSTYYADSVKGRFTISRDNAKNTVYLQMNSLKPEDTAVYYCNARRYVGYDYWGQGTQVTVSS | high polyreactivity
41 | QVQLVESGGGLVQAGGSLRLSCAASGLTFRYYTMGLYRQAPGKERELVASITSGGITYYADSVKGRFTISRDNAKNTVYLQMYSLKPEDTAVYYCAKGSYRTTYGALGVKYGYWGQGTQVNVSS | high polyreactivity
42 | QVQLVESGGGLVQAGGSLRLSCAASGSTFYVNDMGWYRQAPGKERELVAAIDWTGGTTYYADSVKGRFTISRDNAKNTVYLQMNSLKPEDTAVYYCAVDDSTVDYDYWGQGTQVTVSS | low polyreactivity
43 | QVQLVESGGGLVQAGGSLRLSCAASGGTFQSNGMGWYIQAPGKERELVATITGSGGDTSYAGSVKGRFTISRDNAKNTVYLQMNSLKPEDTAVYYCAAADADRKYDYWGQGTQVTVSS | low polyreactivity
